From patent US20050085416A1, “Biologically active complex” (priority 2002, published 2005)
Where a chain is given by its changes, count along the chain named. In names and notes the source's numbering stands. Several values for one entry are separate records, joined by “and”; a condition that tells them apart may be missing. Equal entries are not always repeated. Entries after “also recorded” stand apart in the source; their conditions may differ. Where two headings read alike, the source gives them in different places.

Experiments:
[1] = test system: L1210 leukaemia cells; experiment: DNA fragmentation (oligonucleosome length fragments, agarose gel) in L1210 cells; type: cell-based, mouse; conditions: L1210, six hours
Experimental: Oligonucleosome length DNA fragments were detected by agarose gel electrophoresis. The cell suspension remaining after trypan blue (970 μl, 2×10^6/ml) was lysed in 5 mM Tris, 20 mM EDTA, 0.5% Triton X-100 pH 8.0 at 4° C. for 1 hour and centrifuged at 13,000×g for 15 minutes. DNA was ethanol precipitated over night in −20° C., treated with proteinase K and RNAse, loaded on 1.8% agarose gels and electrophoresed with constant voltage set at 50V over night. DNA fragments were visualised with ethidium bromide using a 305 nm UV-light source and photographed using Polaroid type 55 positive-negative film.

[2] = test system: L1210 leukaemia cells; experiment: Apoptosis bioassay: L1210 cell viability by Trypan blue exclusion; type: cell-based, mouse; conditions: for loss of cell viability: L1210, 0.3 mg/ml; for LD50: L1210 cells; for apoptosis induction / biological activity: apoptosis assay
Experimental: The different agonists were dissolved in cell culture medium, without fetal calf serum, and added to the cells (final volume 1 ml per well). Plates were incubated at 37° C. in 5% CO2 atmosphere and 100 μl of fetal calf serum was added to each well after 30 minutes. Cell culture medium served as a control.
Cell viability was determined by Trypan blue exclusion after six hours of incubation. For analysis, 30 μl of the cell suspension was mixed with 30 μl of a 0.2% trypan blue solution and the number of stained cells (dead cells) per 100 cells was determined by interference contrast microscopy (Ortolux II, Leitz Wetzlar, Germany).

[3] = Ca2+ titration in the presence of chromophoric chelator quin 2; type: binding; conditions: for Ca2+ binding: quin 2 titration; for Ka, calcium association constant: 2 mM Tris/HCl, chelator quin 2; for Kd: read-out: KD, calcium
From the text: To study the Ca^2+ binding equilibrium, the proteins listed in table 1 including the D87A BAMLET obtained as described in Example 7, and HAMLET, was titrated with calcium in the presence of a chromophoric chelator, quin 2, for which the absorbance at 263 nm decreases (approx. 85%) upon Ca^2+-binding. The method relies on competition for calcium between the protein and chelator, and can be used to quantitate high affinity sites (ca. 10^7-5·10^9 M^−1 at low salt, and ca. 5 10^5-1·10^8 M^−1 at 0.15 NaCl) when quin 2 is the chelator. The exact concentration of the chelator solution (in the range of 25-30 μM) was calculated from the absorbance at 239.5 nm in the presence of excess calcium (using ε239.5=4.2×10^4 L mol^−1 cm^−1 for quin 2). Lyophilised protein was dissolved in calcium free (<1 μM Ca^2+) chelator solution at a concentration of 25-30 μM. The absorbance at 263 nm (A263) was recorded for the protein/chelator solution using a UV/Vis 920 spectrophotometer (GBC Scientific Equipment Pty Ltd, Victoria, Australia). Calcium solution (3 mM CaCl2 in 2 mM Tris/HCl, pH 7.5, with or without 0.15 M NaCl) was added in portions of 4 μl. A263 was recorded after each calcium addition.
A more concentrated Ca^2+ stock (10 mM) was used at the end of the titrations of the proteins in 0.15 M NaCl. The data was analysed by least squares fitting directly to the measured quantity, absorbance versus total calcium concentration, using the CaLigator software (Andre and Linse, 2002).

[4] = cited from earlier work; for calcium binding: point mutants of bovine α-lactalbumin
[5] = 20° C.; cited from earlier work
[6] = Spectroscopy (near UV CD, fluorescence, ANS) after addition of excess calcium; type: binding; conditions: excess calcium (1 mM), no spectral changes
Experimental: The products were then subjected to spectroscopic analysis. The proteins or protein fractions were dialyzed against doubly distilled water and lyophilised. Stock solutions were prepared by dissolving the lyophilised material in 10 mM potassium phosphate buffer at pH 7.5, and concentrations determined as the absorbance at 280 nm (A/l=C (mg/ml) where 1 mg/ml of α-lactalbumin is 70 μM). The spectra were recorded at the appropriate dilution.
Circular Dichroism (CD) spectra were obtained on a JASCO J-720 spectro-polarimeter with a JASCO PTC-343 Peltier type thermostated cell holder. Quartz cuvettes were used with 1 cm path length and spectra were recorded at 25° C. between 240 and 320 nm. […] Six scans were recorded and averaged for each spectrum. Baseline spectra were recorded with pure buffer in the cuvette and substracted from the protein spectra.
Fluorescence spectra were recorded at 25° C. on a Perkin Elmer LS-50B spectrometer using a quartz cuvette with 1 cm excitation path length. Intrinsic (tryptophan) fluorescence emission spectra were recorded between 305 and 530 nm (step 1 nm) with excitation at 295 nm. […] ANS fluorescence emission spectra were recorded at 25° C. on a Perkin Elmer LS-50B spectrometer using a quartz cuvette with 1 cm excitation path length, between 400 and 600 nm (step 1 nm) with excitation at 385 nm. […]

[7] = L1210, six hours, 0.3 mg/ml, reduced from 99%
[8] = 5 mM Tris, 0.1 mM EDTA, pH 7.2, 298 K, CD 270 nm
[9] = 10 mM Tris/HCl, no salt, pH 7.5, 298 K, ITC
[10] = H2O, 100 mM KCl, pH 7, 294 K, EDTA, 43Ca-NMR
[11] = 150 mM NaCl (physiological salt)
[12] = physiological salt, 0.15 M NaCl
[13] = L1210, 6 hours' exposure, 0.5 mg/ml, from 98%

In the case of BAMLET, the “DNA fragmentation” value [1] is reported as “stimulated the formation of the characteristic DNA ladder; also recorded: induces DNA fragmentation”, the “loss of cell viability” value [2] is reported as “equally sensitive” and the cell viability ([2]; L1210, 6 hours' exposure, reduced from 98%, concentration not given) is reported as 4%. For the same molecule, the cell viability [2, 7] was 12%, the LD50 [2] was 0.2 mg/mL and the “Ca2+ binding” value [3] was “shown to bind Ca^2+”.

In the case of α-lac bovine: bovine α-lactalbumin, the “Ka” value [4, 8] is listed as 2.5e+08 M⁻¹, the “Ka” value [4, 9] is listed as 4.3e+08 M⁻¹ and the “Ka” value ([4]; 10 mM Tris/HCl, pH 8, DSC) is listed as 2.85e+08 M⁻¹. The “Ka” value ([4]; 10 mM ammonium bicarbonate, pH 7.8, EGTA, fluorescence) was 4.8e+07 M⁻¹, the “Ka” value ([4]; 20 mM Tris, pH 7.5, 298 K, fluorescence, Hummel & Dryer method) was 2.7e+06 M⁻¹ and the “Ka” value ([4]; 20 mM Tris, pH 7.5, 298 K, microcalorimetry) was 2.5e+06 M⁻¹. The “Ka” value ([4]; 50 mM Hepes, pH 8, 293 K, fluorescence) was 4e+08 M⁻¹, the “Ka” value ([4]; 50 mM Hepes, pH 8, 310 K, fluorescence) was 2e+07 M⁻¹ and the “Ka” value [4, 10] was 2e+07 M⁻¹. For the same molecule, the “Ka” value ([4]; H2O, 100 mM KCl, pH 8, 294-298 K, EGTA 13C-NMR) was 2e+07 M⁻¹.

B1: HAMLET (protein, UniProt P00709 20-142, looked up)
Alpha-lactalbumin: KQFTKCELSQLLKDIDGYGGIALPELICTMFHTSGYDTQAIVENNESTEYGLFQISNKLWCKSSQVPQSRNICDISCDKFLDDDITDDIMCAKKILDIKGIDYWLAHKALCTEKLEQWLCEKL
modifications: complex with oleic acid
With B1 the “DNA fragmentation” value [1] was “DNA fragmentation was induced”, the “DNA fragmentation” value ([1]; listed as C18:1:9cis complex) was “DNA fragmentation was observed” and the “loss of cell viability” value [2] was “died rapidly”. For the same molecule, the “apoptosis induction” value ([2]; L1210, HAMLET 0.3 mg (0.3 mg/ml)) was “induced apoptosis; also recorded: sufficient to kill the cells by apoptosis”, the cell viability [2, 7] was 0% and the LD50 [2] was 0.2 mg/mL. For the same molecule, the “apoptosis induction / biological activity” value [2] was “cause apoptosis”, the “Ka, calcium association constant” value [3, 11] was 5.3.10^6 M^−1 and 5.3 · 10^6 M^−1 and the “Ka, calcium association constant” value ([3]; low salt (no added salt)) was 5.9e+09 M⁻¹ and 5.9e+08 M⁻¹. For the same molecule, the Kd ([3]; low salt) was 1.7 nM, the “calcium affinity, times lower than α-lactalbumin” value ([3]; no salt added) was 3 times and the “calcium affinity, times lower than α-lactalbumin” value ([3]; physiological salt concentration) was 1.6 times. For the same molecule, the Kd [3, 12] was 190 nM and the “Ca2+ binding” value [3] was “shown to bind Ca^2+”.

B2: C18:1:11cis complex: complex of apo-α-lactalbumin with C18:1:11cis fatty acid eluted after 1M NaCl (protein, UniProt P00709 20-142, looked up)
Alpha-lactalbumin: B1 Alpha-lactalbumin
modifications: complex with C18:1:11cis fatty acid
notes: complex of apo-α-lactalbumin with C18:1:11cis fatty acid eluted after 1M NaCl
In the case of B2, the “DNA fragmentation” value [1] is reported as “DNA fragmentation was observed”, the cell viability [2, 7] is reported as 0% and the “apoptosis induction / biological activity” value [2] is reported as “cause apoptosis”.

B3: α-lac human: Native human α-lactalbumin purified from human milk (protein, UniProt P00709 20-142, looked up)
Alpha-lactalbumin: B1 Alpha-lactalbumin
In the case of B3, the “Ka” value [4, 8] is listed as 3e+08 M⁻¹, the “Ka” value [4, 10] is listed as 2e+07 M⁻¹ and the “Ka for Na+” value [5] is listed as 100 M⁻¹. For the same molecule, the “factor of decrease of Ca2+ affinity between low and physiological ionic strength” value [3] was 200, the “Ka, calcium association constant” value [3, 11] was 8.3e+06 M⁻¹ and the “Ka, calcium association constant” value ([3]; 150 mM NaCl (physiological salt), listed as α-lactalbumin) was 8.3e+06 M⁻¹. For the same molecule, the “Ka, calcium association constant” value ([3]; low salt (no added salt)) was 1.8e+09 M⁻¹, the “Ka, calcium association constant” value ([3]; low salt (no added salt), listed as α-lactalbumin) was 1.8e+09 M⁻¹ and the Kd ([3]; low salt) was 0.56 nM. For the same molecule, the Kd [3, 12] was 120 nM.

B4: D87A: bovine α-lactalbumin with aspartic acid at position 87 substituted by alanine (protein, UniProt P00711 20-142, looked up, variant D87A)
Alpha-lactalbumin: EQLTKCEVFRELKDLKGYGGVSLPEWVCTTFHTSGYDTQAIVQNNDSTEYGLFQINNKIWCKDDQNPHSSNICNISCDKFLDDDLTADIMCVKKILDKVGINYWLAHKALCSEKLDQWLCEKL
For B4, the “calcium binding” value [4] is listed as “totally abolished calcium binding”, the “calcium binding” value [6] is listed as “did not bind calcium” and the “apoptosis induction / biological activity” value [2] is listed as “biologically inactive”.

B5: αlac goat: goat α-lactalbumin (protein, UniProt P00712 20-142, looked up)
Alpha-lactalbumin: B4 Alpha-lactalbumin with R10Q, E11K, G17D, T30A, S70R, A87D, M90V, V92A
For B5, the “Ka” value [4, 8] is given as 2.8e+08 M⁻¹ and the “Ka” value [4, 9] is given as 5.7e+08 M⁻¹.

B6: D87N-BAMLET: protein-lipid complex of D87N mutant bovine α-lactalbumin eluted from C18:1 conditioned column (protein, UniProt P00711 20-142, looked up, variant D87N)
Alpha-lactalbumin: B4 Alpha-lactalbumin with A87N
modifications: complex with C18:1 fatty acid
notes: protein-lipid complex of D87N mutant bovine α-lactalbumin eluted from C18:1 conditioned column
For B6, the “DNA fragmentation” value [1] was “induced DNA fragmentation similar to the BAMLET control”, the cell viability [2, 13] was 17% and the LD50 [2] was 0.4 mg/mL.

B7: D87A-BAMLET: protein-lipid complex of D87A mutant bovine α-lactalbumin eluted from C18:1 conditioned column (protein, UniProt P00711 20-142, looked up, variant D87A)
Alpha-lactalbumin: B4 Alpha-lactalbumin
modifications: complex with C18:1 fatty acid
notes: protein-lipid complex of D87A mutant bovine α-lactalbumin eluted from C18:1 conditioned column
For B7, the “DNA fragmentation” value [1] was “induced DNA fragmentation similar to the BAMLET control”, the cell viability [2, 13] was 13% and the LD50 [2] was 0.4 mg/mL. The “Ca2+ binding” value [3] was “no difference compared to the titration of quin 2 alone; also recorded: does not bind Ca^2+”.

B8: D87N: bovine α-lactalbumin with aspartic acid at position 87 substituted by asparagine (protein, UniProt P00711 20-142, looked up, variant D87N)
Alpha-lactalbumin: B4 Alpha-lactalbumin with A87N
For B8, the “calcium binding” value [4] is given as “still bound calcium but with lower affinity” and the “apoptosis induction / biological activity” value [2] is given as “biologically inactive”.
